{"source": "paper PMC9482650", "about": "“Quantitative fragmentomics allow affinity mapping of interactomes” (Nature Communications, 2022)", "binders": {"B1": {"name": "SLC2A7, Q6PXP3 (peptide)", "chain": "TASPAKETSF"}, "B2": {"name": "CRB2, Q5IJ48 (peptide)", "chain": "LKVPPEERLI"}}}
{"molecular_target": "T1, PDZRN3_1, Q9UPQ7", "T1 sequence (Q9UPQ7 244-349, limits assumed, looked up)": "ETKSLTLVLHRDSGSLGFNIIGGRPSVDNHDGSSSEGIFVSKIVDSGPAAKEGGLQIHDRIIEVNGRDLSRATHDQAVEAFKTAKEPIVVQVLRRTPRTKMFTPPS", "assay": "holdup assay", "set-up": "key: below the threshold = too weak to quantify, mostly under pKd 3.1 to 4", "settings": "plain residues with an end cap or a label only (N-terminal biotin on a linker: ado-ado)"}
{"binder": "B1", "pKd": "below the threshold"}
{"binder": "B2", "pKd": "below the threshold"}
{"molecular_target": "FRMPD3, Q5JV73", "sequence (Q5JV73 12-100)": "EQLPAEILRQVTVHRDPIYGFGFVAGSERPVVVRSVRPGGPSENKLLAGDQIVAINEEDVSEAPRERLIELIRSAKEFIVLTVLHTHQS", "assay": "holdup assay", "set-up": "key: below the threshold = too weak to quantify, mostly under pKd 3.1 to 4", "settings": "plain residues with an end cap or a label only (N-terminal biotin on a linker: ado-ado)"}
{"binder": "B1", "pKd": "below the threshold"}
{"binder": "B2", "pKd": "below the threshold"}
{"molecular_target": "LNX1_2, Q8TBB1", "sequence (Q8TBB1 371-470)": "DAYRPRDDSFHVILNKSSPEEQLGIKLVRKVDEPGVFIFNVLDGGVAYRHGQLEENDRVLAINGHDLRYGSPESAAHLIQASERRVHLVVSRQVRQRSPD", "assay": "holdup assay", "set-up": "key: below the threshold = too weak to quantify, mostly under pKd 3.1 to 4", "settings": "plain residues with an end cap or a label only (N-terminal biotin on a linker: ado-ado)"}
{"binder": "B1", "pKd": "below the threshold"}
{"binder": "B2", "pKd": "below the threshold"}
{"molecular_target": "Inadl_1, Q8NI35", "sequence (Q8NI35 113-229)": "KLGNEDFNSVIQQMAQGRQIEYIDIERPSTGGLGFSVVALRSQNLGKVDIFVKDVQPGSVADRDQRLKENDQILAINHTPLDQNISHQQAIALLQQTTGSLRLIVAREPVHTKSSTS", "assay": "holdup assay", "set-up": "key: below the threshold = too weak to quantify, mostly under pKd 3.1 to 4", "settings": "plain residues with an end cap or a label only (N-terminal biotin on a linker: ado-ado)"}
{"binder": "B1", "pKd": "below the threshold"}
{"binder": "B2", "pKd": "below the threshold"}
{"molecular_target": "MAGI2_6, Q86UL8", "sequence (Q86UL8 1141-1229)": "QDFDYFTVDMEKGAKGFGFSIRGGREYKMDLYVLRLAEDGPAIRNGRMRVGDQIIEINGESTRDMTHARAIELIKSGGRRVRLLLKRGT", "assay": "holdup assay", "set-up": "key: below the threshold = too weak to quantify, mostly under pKd 3.1 to 4", "settings": "plain residues with an end cap or a label only (N-terminal biotin on a linker: ado-ado)"}
{"binder": "B1", "pKd": 4.1}
{"binder": "B2", "pKd": "below the threshold"}
{"molecular_target": "T2, TX1BP3, O14907", "T2 sequence (O14907 10-122, limits assumed, looked up)": "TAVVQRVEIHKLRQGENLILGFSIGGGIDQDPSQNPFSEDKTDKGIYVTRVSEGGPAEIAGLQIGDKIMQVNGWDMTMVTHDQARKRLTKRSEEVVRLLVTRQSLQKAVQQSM", "assay": "holdup assay", "set-up": "key: below the threshold = too weak to quantify, mostly under pKd 3.1 to 4", "settings": "plain residues with an end cap or a label only (N-terminal biotin on a linker: ado-ado)"}
{"binder": "B1", "pKd": 3.79}
{"binder": "B2", "pKd": "below the threshold"}
{"molecular_target": "T3, APBA2_2, Q99767", "T3 sequence (Q99767 654-744, limits assumed, looked up)": "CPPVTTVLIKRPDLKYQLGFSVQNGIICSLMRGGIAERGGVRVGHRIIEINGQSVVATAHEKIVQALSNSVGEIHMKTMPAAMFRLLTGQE", "assay": "holdup assay", "set-up": "key: below the threshold = too weak to quantify, mostly under pKd 3.1 to 4", "settings": "plain residues with an end cap or a label only (N-terminal biotin on a linker: ado-ado)"}
{"binder": "B1", "pKd": "below the threshold"}
{"binder": "B2", "pKd": "below the threshold"}
{"molecular_target": "SNX27, Q96L92", "assay": "holdup assay", "set-up": "key: below the threshold = too weak to quantify, mostly under pKd 3.1 to 4", "settings": "plain residues with an end cap or a label only (N-terminal biotin on a linker: ado-ado)"}
{"binder": "B1", "pKd": 5.48}
{"binder": "B2", "pKd": "below the threshold"}
{"molecular_target": "MAGI2_5, Q86UL8", "sequence (Q86UL8 915-1017)": "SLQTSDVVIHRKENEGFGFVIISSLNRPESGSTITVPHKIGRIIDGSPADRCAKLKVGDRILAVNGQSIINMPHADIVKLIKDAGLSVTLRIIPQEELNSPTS", "assay": "holdup assay", "set-up": "key: below the threshold = too weak to quantify, mostly under pKd 3.1 to 4", "settings": "plain residues with an end cap or a label only (N-terminal biotin on a linker: ado-ado)"}
{"binder": "B1", "pKd": "below the threshold"}
{"binder": "B2", "pKd": "below the threshold"}
{"molecular_target": "T4, GRIP1_3, Q9Y3R0", "T4 sequence (Q9Y3R0 247-346, limits assumed, looked up)": "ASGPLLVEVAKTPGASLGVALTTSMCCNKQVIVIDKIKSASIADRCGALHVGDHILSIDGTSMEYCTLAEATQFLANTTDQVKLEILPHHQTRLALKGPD", "assay": "holdup assay", "set-up": "key: below the threshold = too weak to quantify, mostly under pKd 3.1 to 4", "settings": "plain residues with an end cap or a label only (N-terminal biotin on a linker: ado-ado)"}
{"binder": "B1", "pKd": "below the threshold"}
{"binder": "B2", "pKd": "below the threshold"}
{"molecular_target": "GORASP1, Q9BQQ3", "sequence (Q9BQQ3 1-208)": "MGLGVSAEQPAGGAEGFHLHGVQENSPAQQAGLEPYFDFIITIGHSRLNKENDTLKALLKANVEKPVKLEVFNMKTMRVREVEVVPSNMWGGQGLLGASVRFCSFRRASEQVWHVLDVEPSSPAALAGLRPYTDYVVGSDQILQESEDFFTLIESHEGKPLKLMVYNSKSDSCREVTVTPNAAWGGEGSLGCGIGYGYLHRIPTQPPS", "assay": "holdup assay", "set-up": "key: below the threshold = too weak to quantify, mostly under pKd 3.1 to 4", "settings": "plain residues with an end cap or a label only (N-terminal biotin on a linker: ado-ado)"}
{"binder": "B1", "pKd": "below the threshold"}
{"binder": "B2", "pKd": "below the threshold"}
{"molecular_target": "T5, GRIP1_5, Q9Y3R0", "T5 sequence (Q9Y3R0 568-668, limits assumed, looked up)": "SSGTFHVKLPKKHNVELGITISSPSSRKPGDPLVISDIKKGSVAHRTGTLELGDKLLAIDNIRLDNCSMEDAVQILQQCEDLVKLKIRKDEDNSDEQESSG", "assay": "holdup assay", "set-up": "key: below the threshold = too weak to quantify, mostly under pKd 3.1 to 4", "settings": "plain residues with an end cap or a label only (N-terminal biotin on a linker: ado-ado)"}
{"binder": "B1", "pKd": "below the threshold"}
{"binder": "B2", "pKd": "below the threshold"}
{"molecular_target": "SCRIB_2, Q14160", "sequence (Q14160 857-960)": "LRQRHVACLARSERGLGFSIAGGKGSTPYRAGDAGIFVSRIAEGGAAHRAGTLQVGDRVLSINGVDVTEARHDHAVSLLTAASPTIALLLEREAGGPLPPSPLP", "assay": "holdup assay", "set-up": "key: below the threshold = too weak to quantify, mostly under pKd 3.1 to 4", "settings": "plain residues with an end cap or a label only (N-terminal biotin on a linker: ado-ado)"}
{"binder": "B1", "pKd": 4.12}
{"binder": "B2", "pKd": "below the threshold"}
{"molecular_target": "MAGI1_2, Q96QZ7", "sequence (Q96QZ7 456-580)": "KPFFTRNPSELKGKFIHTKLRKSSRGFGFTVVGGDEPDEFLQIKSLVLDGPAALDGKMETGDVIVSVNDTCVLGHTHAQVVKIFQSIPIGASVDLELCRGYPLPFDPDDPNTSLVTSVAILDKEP", "assay": "holdup assay", "set-up": "key: below the threshold = too weak to quantify, mostly under pKd 3.1 to 4", "settings": "plain residues with an end cap or a label only (N-terminal biotin on a linker: ado-ado)"}
{"binder": "B1", "pKd": "below the threshold"}
{"binder": "B2", "pKd": "below the threshold"}
{"molecular_target": "CASK, O14936", "sequence (O14936 487-570)": "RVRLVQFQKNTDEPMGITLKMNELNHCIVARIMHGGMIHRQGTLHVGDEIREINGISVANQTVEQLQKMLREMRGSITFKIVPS", "assay": "holdup assay", "set-up": "key: below the threshold = too weak to quantify, mostly under pKd 3.1 to 4", "settings": "plain residues with an end cap or a label only (N-terminal biotin on a linker: ado-ado)"}
{"binder": "B1", "pKd": "below the threshold"}
{"binder": "B2", "pKd": "below the threshold"}
{"molecular_target": "GRIP2_7, Q9C0E4", "sequence (Q9C0E4 934-1023)": "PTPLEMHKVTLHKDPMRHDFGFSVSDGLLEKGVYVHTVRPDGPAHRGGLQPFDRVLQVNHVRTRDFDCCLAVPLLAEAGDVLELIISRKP", "assay": "holdup assay", "set-up": "key: below the threshold = too weak to quantify, mostly under pKd 3.1 to 4", "settings": "plain residues with an end cap or a label only (N-terminal biotin on a linker: ado-ado)"}
{"binder": "B1", "pKd": "below the threshold"}
{"binder": "B2", "pKd": "below the threshold"}
{"molecular_target": "MAGI1_1, Q96QZ7", "sequence (Q96QZ7 1-106)": "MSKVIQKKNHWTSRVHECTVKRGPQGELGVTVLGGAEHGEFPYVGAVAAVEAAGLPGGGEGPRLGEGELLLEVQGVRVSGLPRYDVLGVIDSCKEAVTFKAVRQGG", "assay": "holdup assay", "set-up": "key: below the threshold = too weak to quantify, mostly under pKd 3.1 to 4", "settings": "plain residues with an end cap or a label only (N-terminal biotin on a linker: ado-ado)"}
{"binder": "B1", "pKd": "below the threshold"}
{"binder": "B2", "pKd": "below the threshold"}
{"molecular_target": "LNX1_3, Q8TBB1", "sequence (Q8TBB1 500-596)": "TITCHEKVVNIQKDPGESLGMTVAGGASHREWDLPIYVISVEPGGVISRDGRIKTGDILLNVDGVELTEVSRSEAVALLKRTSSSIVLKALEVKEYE", "assay": "holdup assay", "set-up": "key: below the threshold = too weak to quantify, mostly under pKd 3.1 to 4", "settings": "plain residues with an end cap or a label only (N-terminal biotin on a linker: ado-ado)"}
{"binder": "B1", "pKd": "below the threshold"}
{"binder": "B2", "pKd": "below the threshold"}
{"molecular_target": "T6, SNTB1, Q13884", "T6 sequence (Q13884 107-205, limits assumed, looked up)": "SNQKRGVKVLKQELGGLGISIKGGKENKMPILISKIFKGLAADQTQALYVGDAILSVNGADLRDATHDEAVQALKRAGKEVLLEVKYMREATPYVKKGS", "assay": "holdup assay", "set-up": "key: below the threshold = too weak to quantify, mostly under pKd 3.1 to 4", "settings": "plain residues with an end cap or a label only (N-terminal biotin on a linker: ado-ado)"}
{"binder": "B1", "pKd": 3.53}
{"binder": "B2", "pKd": "below the threshold"}
{"molecular_target": "T7, RADIL, Q96JH8", "T7 sequence (Q96JH8 971-1071, limits assumed, looked up)": "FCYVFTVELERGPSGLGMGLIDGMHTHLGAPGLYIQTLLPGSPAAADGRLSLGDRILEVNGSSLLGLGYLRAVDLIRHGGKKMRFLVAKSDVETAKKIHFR", "assay": "holdup assay", "set-up": "key: below the threshold = too weak to quantify, mostly under pKd 3.1 to 4", "settings": "plain residues with an end cap or a label only (N-terminal biotin on a linker: ado-ado)"}
{"binder": "B1", "pKd": "below the threshold"}
{"binder": "B2", "pKd": "below the threshold"}
{"molecular_target": "DLG4_2, P78352", "sequence (P78352 155-259)": "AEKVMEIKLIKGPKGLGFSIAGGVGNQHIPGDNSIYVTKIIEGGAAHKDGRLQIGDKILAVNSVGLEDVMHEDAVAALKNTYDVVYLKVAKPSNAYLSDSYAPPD", "assay": "holdup assay", "set-up": "key: below the threshold = too weak to quantify, mostly under pKd 3.1 to 4", "settings": "plain residues with an end cap or a label only (N-terminal biotin on a linker: ado-ado)"}
{"binder": "B1", "pKd": 4.11}
{"binder": "B2", "pKd": "below the threshold"}
{"molecular_target": "IL16_4, Q14005", "sequence (Q14005 1229-1329)": "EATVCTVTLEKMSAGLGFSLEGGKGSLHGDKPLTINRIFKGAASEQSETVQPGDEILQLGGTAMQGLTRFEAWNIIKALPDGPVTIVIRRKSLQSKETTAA", "assay": "holdup assay", "set-up": "key: below the threshold = too weak to quantify, mostly under pKd 3.1 to 4", "settings": "plain residues with an end cap or a label only (N-terminal biotin on a linker: ado-ado)"}
{"binder": "B1", "pKd": "below the threshold"}
{"binder": "B2", "pKd": "below the threshold"}
{"molecular_target": "LNX1_1, Q8TBB1", "sequence (Q8TBB1 261-371)": "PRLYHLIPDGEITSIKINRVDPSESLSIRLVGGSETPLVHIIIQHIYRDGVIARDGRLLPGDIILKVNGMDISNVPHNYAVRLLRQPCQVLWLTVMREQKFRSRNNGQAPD", "assay": "holdup assay", "set-up": "key: below the threshold = too weak to quantify, mostly under pKd 3.1 to 4", "settings": "plain residues with an end cap or a label only (N-terminal biotin on a linker: ado-ado)"}
{"binder": "B1", "pKd": "below the threshold"}
{"binder": "B2", "pKd": "below the threshold"}
{"molecular_target": "Inadl_6, Q8NI35", "sequence (Q8NI35 1058-1167)": "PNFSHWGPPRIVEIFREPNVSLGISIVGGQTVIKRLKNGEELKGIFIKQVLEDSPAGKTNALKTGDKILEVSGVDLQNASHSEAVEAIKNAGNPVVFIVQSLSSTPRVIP", "assay": "holdup assay", "set-up": "key: below the threshold = too weak to quantify, mostly under pKd 3.1 to 4", "settings": "plain residues with an end cap or a label only (N-terminal biotin on a linker: ado-ado)"}
{"binder": "B1", "pKd": "below the threshold"}
{"binder": "B2", "pKd": "below the threshold"}
{"molecular_target": "PICK1, Q9NRD5", "sequence (Q9NRD5 17-115)": "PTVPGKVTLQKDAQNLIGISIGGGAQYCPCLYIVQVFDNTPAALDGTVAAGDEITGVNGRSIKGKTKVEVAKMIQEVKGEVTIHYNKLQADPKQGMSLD", "assay": "holdup assay", "set-up": "key: below the threshold = too weak to quantify, mostly under pKd 3.1 to 4", "settings": "plain residues with an end cap or a label only (N-terminal biotin on a linker: ado-ado)"}
{"binder": "B1", "pKd": "below the threshold"}
{"binder": "B2", "pKd": "below the threshold"}
{"molecular_target": "PDZRN4_1, Q6ZMN7", "sequence (Q6ZMN7 213-318)": "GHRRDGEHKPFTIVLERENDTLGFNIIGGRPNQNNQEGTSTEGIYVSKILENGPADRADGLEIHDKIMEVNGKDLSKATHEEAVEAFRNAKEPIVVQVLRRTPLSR", "assay": "holdup assay", "set-up": "key: below the threshold = too weak to quantify, mostly under pKd 3.1 to 4", "settings": "plain residues with an end cap or a label only (N-terminal biotin on a linker: ado-ado)"}
{"binder": "B1", "pKd": "below the threshold"}
{"binder": "B2", "pKd": "below the threshold"}
{"molecular_target": "DLG4_3, P78352", "sequence (P78352 306-403)": "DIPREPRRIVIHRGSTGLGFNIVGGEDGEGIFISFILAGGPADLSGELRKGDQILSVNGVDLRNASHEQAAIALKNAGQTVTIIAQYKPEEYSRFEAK", "assay": "holdup assay", "set-up": "key: below the threshold = too weak to quantify, mostly under pKd 3.1 to 4", "settings": "plain residues with an end cap or a label only (N-terminal biotin on a linker: ado-ado)"}
{"binder": "B1", "pKd": "below the threshold"}
{"binder": "B2", "pKd": "below the threshold"}
{"molecular_target": "SCRIB_3, Q14160", "sequence (Q14160 999-1103)": "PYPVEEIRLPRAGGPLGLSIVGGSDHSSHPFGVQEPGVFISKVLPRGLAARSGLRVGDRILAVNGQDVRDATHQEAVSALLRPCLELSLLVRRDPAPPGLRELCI", "assay": "holdup assay", "set-up": "key: below the threshold = too weak to quantify, mostly under pKd 3.1 to 4", "settings": "plain residues with an end cap or a label only (N-terminal biotin on a linker: ado-ado)"}
{"binder": "B1", "pKd": 5.14}
{"binder": "B2", "pKd": 3.75}
{"molecular_target": "GRIP2_4, Q9C0E4", "sequence (Q9C0E4 446-548)": "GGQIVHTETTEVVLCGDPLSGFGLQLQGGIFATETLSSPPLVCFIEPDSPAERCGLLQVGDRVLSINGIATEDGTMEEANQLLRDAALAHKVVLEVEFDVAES", "assay": "holdup assay", "set-up": "key: below the threshold = too weak to quantify, mostly under pKd 3.1 to 4", "settings": "plain residues with an end cap or a label only (N-terminal biotin on a linker: ado-ado)"}
{"binder": "B1", "pKd": "below the threshold"}
{"binder": "B2", "pKd": "below the threshold"}
{"molecular_target": "FRMPD4, Q14CM0", "sequence (Q14CM0 67-160)": "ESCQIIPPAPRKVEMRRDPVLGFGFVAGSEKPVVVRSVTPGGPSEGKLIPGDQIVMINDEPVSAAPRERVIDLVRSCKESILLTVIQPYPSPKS", "assay": "holdup assay", "set-up": "key: below the threshold = too weak to quantify, mostly under pKd 3.1 to 4", "settings": "plain residues with an end cap or a label only (N-terminal biotin on a linker: ado-ado)"}
{"binder": "B1", "pKd": "below the threshold"}
{"binder": "B2", "pKd": "below the threshold"}
